Experimental findings from article PMC6405316 (Nature, 2019) are described below.

In test [1] the target is KCTD12 H1 domain (residues 200–325) (human) (UniProt Q96CX2). Briefly: SEC. In general terms: Size exclusion chromatography separates by hydrodynamic size, large species first.
The target of test [2] is His6-SMT3-tagged KCTD16 BTB domain (residues 23–124) (human, UniProt Q68DU8 23-124). Briefly: pull-down.
Test [3] addresses KCTD16 BTB domain wild-type (residues 23–124), SMT3 tag cleaved with ULP1 (human, UniProt Q68DU8 23-124). As to the kind of experiment: pull-down.
In test [4] the target is His6-GST-tagged KCTD12 32–325 (human, UniProt Q96CX2 32-325). Briefly: pull-down.
Test [5] addresses KCTD16 21–279, His6-GST tag cleaved by 3C protease (human, UniProt Q68DU8 21-279). As to the kind of experiment: SEC.
Test [6] has as its target KCTD12 32–325, His6-GST tag cleaved by 3C protease (human, UniProt Q96CX2 32-325). Briefly: SEC.

Chain of KCTD16 BTB domain wild-type (residues 23–124), SMT3 tag cleaved with ULP1 (Q68DU8 23-124): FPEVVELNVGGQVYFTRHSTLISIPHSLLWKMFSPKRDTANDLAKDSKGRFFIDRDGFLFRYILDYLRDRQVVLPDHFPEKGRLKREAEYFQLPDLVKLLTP
Chain of His6-SMT3-tagged KCTD16 BTB domain (residues 23–124) (Q68DU8 23-124): as above
Chain of KCTD16 21–279, His6-GST tag cleaved by 3C protease (Q68DU8 21-279): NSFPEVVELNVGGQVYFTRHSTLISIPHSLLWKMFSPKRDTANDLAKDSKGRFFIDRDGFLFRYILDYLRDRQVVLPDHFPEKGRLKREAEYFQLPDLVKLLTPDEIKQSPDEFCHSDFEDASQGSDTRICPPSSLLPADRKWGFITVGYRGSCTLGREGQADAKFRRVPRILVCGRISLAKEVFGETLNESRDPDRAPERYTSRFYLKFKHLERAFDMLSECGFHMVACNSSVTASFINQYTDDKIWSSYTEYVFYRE
Chain of KCTD12 H1 domain (residues 200–325) (human) (Q96CX2 200-325): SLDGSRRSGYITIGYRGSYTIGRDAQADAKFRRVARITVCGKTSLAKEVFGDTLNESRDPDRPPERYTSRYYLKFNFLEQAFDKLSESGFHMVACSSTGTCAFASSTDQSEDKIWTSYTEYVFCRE
Chain of KCTD12 32–325, His6-GST tag cleaved by 3C protease (Q96CX2 32-325): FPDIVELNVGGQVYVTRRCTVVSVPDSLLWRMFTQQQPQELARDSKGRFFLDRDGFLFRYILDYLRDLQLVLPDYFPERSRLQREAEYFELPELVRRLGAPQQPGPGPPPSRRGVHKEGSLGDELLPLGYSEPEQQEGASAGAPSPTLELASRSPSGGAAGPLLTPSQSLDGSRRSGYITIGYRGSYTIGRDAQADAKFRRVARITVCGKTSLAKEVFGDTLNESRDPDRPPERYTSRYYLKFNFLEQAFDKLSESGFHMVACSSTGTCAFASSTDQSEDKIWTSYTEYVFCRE
Chain of His6-GST-tagged KCTD12 32–325 (Q96CX2 32-325): as above

Turning to “Human Gβ1γ2 heterodimer (His6-Gβ1, Gγ2 C68S) (from UniProt P62873;P59768) (complex)”, in test [1], the stoichiometry N (Gβγ per KCTD12H1 chain (5:5)) is 1. Consider KDPIEDINSPEHIQRRLSLQLPILHHAYLPSIGGVDAS [His6-GST-tagged GABAB2 C-terminal fragment (residues 876–913)], for which the binding result in test [2] and in test [3] was “binds” in each case. As for KDPIEDINSPEHIQRRLSLQLPILHHAYLPSIGGVDAS [His6-SUMO-tagged GABAB2 876–913], in test [4], the binding result is on record as “binds”. For the molecule KDPIEDINSPEHIQRRLSLQLPILHHAYLPSIGGVDAS [GABAB2 876–913, His6-SUMO tag cleaved by 3C protease], the binding result in test [5] and in test [6] was “binds” each time.
